“Also recorded” adds a separate entry of the source.
Assays:
[1] = system: CHO cells; experiment: Deletion analysis, cell death by trypan blue exclusion; assay type: cell-based, Chinese hamster; details: 10 μg construct, trypan blue exclusion 48 hours after transfection
Experimental: The amino-terminal portion of Bit1 (residues 16-40) is hydrophobic and can serve as a transmembrane domain or signal peptide sequence. When the hydrophobicity of this portion was reduced by substitution of glycine 22 and glycine 38 by serine, Bit1 apoptotic activity was reduced.
Deletion analysis was performed as follows. The indicated deletion mutants were cloned into vector pEGFP-C1, and 10 μg of each plasmid construct transfected into CHO cells. Cell death was measured by trypan blue exclusion 48 hours after transfection.
To delineate the pro-apoptotic domain of AES, a series of AES deletion mutants was prepared as amino-terminal fusions with GFP in vector pEGFP-C1. Various AES deletion constructs (10 μg) were transfected into CHO cells, and cell death measured by trypan blue exclusion 48 hours after transfection.

[2] = system: CHO cells; experiment: Scoring of rounded-up cells expressing GFP as dead cells; assay type: cell-based, Chinese hamster
Experimental: AES was assayed for pro-apoptotic activity in CHO cells transfected with a green fluorescent protein (GFP)-AES fusion protein. […] However, in HEK 293 cells, which express no detectable Bit1 by immunohistochemistry or Northern analysis, transfection of AES alone was not apoptotic.
Furthermore, apoptosis was measured in cells transfected with Bit1 (5 μg DNA), AES (5 μg DNA) or both (5 μg each). Rounded up cells expressing GFP were scored as dead cells 24 and 48 hours after the transfection.
To determine if TLE1 suppresses apoptosis induced by AES in CHO cells, cells were transfected with GFP-AES or GFP-TLE1 alone, or both. Cell death was assessed by scoring rounded-up cells expressing GFP 48 hours later.

[3] = system: Bit1-induced apoptosis in HEK 293 cells; experiment: Co-transfection of Bit1 with anti-apoptotic proteins; assay type: cell-based, human; details: HEK 293 cells co-transfected with Bit1
Experimental: Co-transfections were performed with cells plated on non-coated dishes transfected with 5 μg Bit1 plasmid alone or together with 10 μg dominant negative (DN) R-Ras, or activated H-Ras plasmid (Zou et al., Proc. Natl. Acad. Sci. USA 96: 13813-13818 (1999)). […] Expression of the transfected proteins was confirmed by immunoblotting. Apoptosis was assayed as described above.

[4] = system: Bcl-2 promoter; experiment: Bcl-2 promoter reporter assay in CHO cells; assay type: cell-based, Chinese hamster; details: CHO cells, 1 μg Bcl-2-luciferase reporter construct, 24 hours in culture
Text: The entire CGI-147 open reading frame encodes a 27-kDa protein with no sequence similarity to other proteins. […] To denote this inhibitory transcriptional activity, the Clone-3 gene was denoted Bit1 for Bcl-2 inhibitor of transcription.

[5] = system: 19,000 human cDNAs; experiment: cDNA microarray analysis of ecdysone-induced Bit1 or AES cell lines; assay type: cell-based
Experimental: (§1) To determine whether the Bit1/AES pathway can regulate the transcription of genes other than Bcl-2, two stable cell lines were established expressing either-Bit1 or AES under control of an ecdysone-inducible promoter. To detect genes regulated by Bit1 or AES, probes were prepared from the ecdysone-induced cell lines and used to screen microarrays representing 19,000 human cDNAs. […] Down-regulation of HSP-70 and thymosin 4 in cells induced to express Bit1 or AES was confirmed by Northern blot analysis (see FIG. 7).
cDNA microarray analysis was performed as follows. Total RNA was purified 48 hours after treatment with 10 μM ponasterone A (Invitrogen; San Diego, Calif.) from the ecdysone inducible cell line ECR-293-Bit1 or ECR-293-AES according to the manufacturer's instructions (Qiagen; Valencia, Calif.). cDNA probes were generated and hybridized with a microarray containing 19,000 human cDNAs from Microarray Centre at University Health Network, Ontario Cancer institute. cDNAs were labeled with fluorescent dyes (Cy3 or Cy5) using reverse transcription. Arrays were processed and hybridized essentially as described in Iyer et al., Science 283:83-87 (1999). After hybridization, arrays were scanned to measure fluorescence using a ScanArray 4000 scanner (Perkin Elmer; Meriden, Conn.). Raw data files generated by scanner software were imported into ImaGene and Gene Spring for analysis. Experiments were performed in duplicate using color reversals.

[6] = system: CHO cells; experiment: Percentage of GFP-positive detached cells after transfection; assay type: cell-based, Chinese hamster; details: 48 hours after transfection, GFP fusion construct
Experimental: (§2) To determine if Bit1 and AES are both required for apoptosis induction, HEK 293T, HOP92, and CHO cells were transfected with a GFP (vector), GFP-Bit1, or GFP-AES fusion protein constructs, as indicated in FIG. 3E. The cells were examined 48 hours (HEK 293T and CHO) or 72 hours (HOP92) after transfection, and the percentage of GFP-positive detached cells was measured.

[7] = system: HEK 293T cells; experiment: as above; assay type: cell-based, human; details: 48 hours after transfection, GFP fusion construct
Experimental: as §2

[8] = system: Thymosin β-4; experiment: Northern blot of ecdysone-induced Bit1 or AES cell lines; assay type: cell-based, human; details: ecdysone-inducible ECR-293 cell line expressing Bit1 or AES
Experimental: as §1
(§3) Northern blot analysis was performed as follows. Total RNA (10 μg) was electrophoresed on a 1% agarose-formaldehyde gel and transferred to nitrocellulose filters. The filters were hybridized using the same RNA probes as in the microarray experiments in Rapid-hyb buffer and washed according to the manufacturer's instructions (Amersham-Pharmacia).

[9] = system: Heat Shock 70 kD protein 1A; experiment: as above; assay type: cell-based, human; details: ecdysone-inducible ECR-293 cell line expressing Bit1 or AES
Experimental: as §1, §3

[10] = system: Bit1-induced apoptosis in HEK 293 cells; experiment: Extracellular matrix proteins and Bit1-induced apoptosis, trypan blue staining; assay type: cell-based, human; details: HEK 293 cells plated onto coated dishes, 10 μg Bit1 plasmid, 48 hours
Experimental: Several extracellular matrix proteins were assayed for the ability to modulate Bit1-mediated apoptosis. Cells were plated onto bacterial culture dishes pre-coated overnight with fibronectin (Chemicon; Temecula; CA), vitronectin (SIGMA; St. Louis, Mo.) or type I collagen (SIGMA), and transfected and assayed for apoptosis as described above.
To analyze integrin involvement in protecting attached cells against the pro-apoptotic effect of Bit1, Bit1 cell lines expressing either α5β1 or αvβ1 as the main fibronectin receptor were compared. The two cell lines attach equally well to fibronectin but, like cytoplasmically truncated α5β1, αvβ1 fails to protect cells against apoptosis induced by serum deprivation (Zhang et al., supra, 1995; and Matter and Ruoslahti, supra, 2001).
Experiments with extracellular matrix proteins were performed as follows. Cells were plated onto uncoated tissue culture plates or onto bacterial culture plates coated with fibronectin, vitronectin or collagen, and allowed to attach in the presence of serum. The attachment was equal on all of these surfaces. The cells were then transfected with 10 μg of Bit1 expression plasmid; where indicated, cells were treated with a control IgG of unrelated specificity or monoclonal anti-human α5 antibody (Chemicon), both at 10 μg/ml. Cell death was measured by trypan blue staining 48 hours after the transfection.

B1: AES residues 106-197: AES deletion mutant, amino-terminal fusion with GFP (protein, UniProt Q08117 106-197, looked up, fragment)
chain: GAIERAKQVTAPELNSIIRQQLQAHQLSQLQALALPLTPLPVGLQPPSLPAVSAGTGLLSLSALGSQAHLSKEDKNGHDGDTHQEDDGEKSD
modifications: GFP fusion
notes: AES deletion mutant, amino-terminal fusion with GFP
[1]
  pro-apoptotic activity of deletion constructs: no apoptotic activity

B2: TLE2: TLE family protein (protein, UniProt Q04725 1-743, looked up)
Transducin-like enhancer …: MYPQGRHPTPLQSGQPFKFSILEICDRIKEEFQFLQAQYHSLKLECEKLASEKTEMQRHYVMYYEMSYGLNIEMHKQAEIVKRLSGICAQIIPFLTQEHQQQVLQAVERAKQVTVGELNSLIGQQLQPLSHHAPPVPLTPRPAGLVGGSATGLLALSGALAAQAQLAAAVKEDRAGVEAEGSRVERAPSRSASPSPPESLVEEERPSGPGGGGKQRADEKEPSGPYESDEDKSDYNLVVDEDQPSEPPSPATTPCGKVPICIPARRDLVDSPASLASSLGSPLPRAKELILNDLPASTPASKSCDSSPPQDASTPGPSSASHLCQLAAKPAPSTDSVALRSPLTLSSPFTTSFSLGSHSTLNGDLSVPSSYVSLHLSPQVSSSVVYGRSPVMAFESHPHLRGSSVSSSLPSIPGGKPAYSFHVSADGQMQPVPFPSDALVGAGIPRHARQLHTLAHGEVVCAVTISGSTQHVYTGGKGCVKVWDVGQPGAKTPVAQLDCLNRDNYIRSCKLLPDGRSLIVGGEASTLSIWDLAAPTPRIKAELTSSAPACYALAVSPDAKVCFSCCSDGNIVVWDLQNQTMVRQFQGHTDGASCIDISDYGTRLWTGGLDNTVRCWDLREGRQLQQHDFSSQIFSLGHCPNQDWLAVGMESSNVEILHVRKPEKYQLHLHESCVLSLKFASCGRWFVSTGKDNLLNAWRTPYGASIFQSKESSSVLSCDISRNNKYIVTGSGDKKATVYEVVY
[2]; rounded-up GFP cells scored 48 hours later
  effect on apoptosis induced by AES: modestly suppresses

B3: p35: caspase inhibitor protein, transfected expression construct (protein, UniProt P08160 1-299, looked up)
Early 35 kDa protein: MCVIFPVEIDVSQTIIRDCQVDKQTRELVYINKIMNTQLTKPVLMMFNISGPIRSVTRKNNNLRDRIKSKVDEQFDQLERDYSDQMDGFHDSIKYFKDEHYSVSCQNGSVLKSKFAKILKSHDYTDKKSIEAYEKYCLPKLVDERNDYYVAVCVLKPGFENGSNQVLSFEYNPIGNKVIVPFAHEINDTGLYEYDVVAYVDSVQFDGEQFEEFVQSLILPSSFKNSEKVLYYNEASKNKSMIYKALEFTTESSWGKSEKYNWKIFCNGFIYDKKSKVLYVKLHNVTSALNKNVILNTIK
[3]
  effect on apoptosis induced by Bit1: little or no effect

B4: AES: human AES, 197 residue Groucho/TLE family protein (SEQ ID NO:6) that associates with Bit1 (protein, listed as Homo sapiens)
chain: MMFPQSRHSGSSHLPQQLKFTTSDSCDRIKDEFQLLQAQYHSLKLECDKLASEKSEMQRHYVMYYEMSYGLNIEMHKQAEIVKRLNGICAQVLPYLSQEHQQQVLGAIERAKQVTAPELNSIIRQQLQAHQLSQLQALALPLTPLPVGLQPPSLPAVSAGTGLLSLSALGSQAHLSKEDKNGHDGDTHQEDDGEKSD
[4]
  Bcl-2 promoter activity: down-regulate
[5]; Bit1 and AES stable cell lines
  Bcl-2 expression: not measurably altered
[5]; at least a two-fold induction, value is the gene
  Microarray result: gene induced: DNA replication licensing factor; also recorded: NIK-related kinase 17; also recorded: CMP-N-acetylneuraminic acid
[5]; at least a two-fold suppression, value is the gene
  Microarray result: gene suppressed: Heat shock 70 KD protein 1A; also recorded: Thymosin β-4; also recorded: KCNAB2; also recorded: FLJ10386; also recorded: NET-5; also recorded: SRY-related HMG-box gene 4
[6]
  apoptosis induction in CHO cells: induced apoptosis
[7]
  effect on viability of 293T cells: no effect on the viability
[2]; GFP-AES fusion protein
  time within which CHO cells receiving GFP-AES died: ≤ 48 h
[8]
  Northern result, suppression of Thymosin β-4: 4 fold
[9]
  Northern result, suppression of Heat Shock 70 kD protein 1A: 3 fold

B5: vitronectin: extracellular matrix protein coated on culture dishes (SIGMA) (protein, UniProt P04004 20-478, looked up)
Vitronectin: DQESCKGRCTEGFNVDKKCQCDELCSYYQSCCTDYTAECKPQVTRGDVFTMPEDEYTVYDDGEEKNNATVHEQVGGPSLTSDLQAQSKGNPEQTPVLKPEEEAPAPEVGASKPEGIDSRPETLHPGRPQPPAEEELCSGKPFDAFTDLKNGSLFAFRGQYCYELDEKAVRPGYPKLIRDVWGIEGPIDAAFTRINCQGKTYLFKGSQYWRFEDGVLDPDYPRNISDGFDGIPDNVDAALALPAHSYSGRERVYFFKGKQYWEYQFQHQPSQEECEGSSLSAVFEHFAMMQRDSWEDIFELLFWGRTSAGTRQPQFISRDWHGVPGQVDAAMAGRIYISGMAPRPSLAKKQRFRHRNRKGYRSQRGHSRGRNQNSRRPSRATWLSLFSSEESNLGANNYDDYRMDWLVPATCEPIQSVFFFSGDKYYRVNLRTRRVDTVDPPYPRSIAQYWLGCPAPGHL
[10]
  protection from Bit1-induced apoptosis: largely protected
